# Test: yeast display, Sf9 membrane polyspecificity reagent, FACS + sequencing; frameworks hold sequencing errors
# Method in brief: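 Polyreactivity labels are assigned by the sorting gate from which each nanobody was recovered. The gates were low and high (top ~1%), set on anti-HA fluorescence for expression and streptavidin fluorescence for reagent binding. Before sorting, galactose-induced (36–48 hours) yeast display cells were stained for 1 hour at 4 °C with 10% biotinylated, detergent-solubilized Sf9 membrane reagent.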
row,Sequence,polyreactivity (PSR sort gate)
1,QVQLVESGGGLVQAGGSLRLSCAASGSIFLYNAMGWYRQAPGKERELVAAISSSSDRTYYADSVKGRFTISRDNAKNTVYLQMNSLKPEDTAVYYCNVVYIGWRKYEYWGQGTQVTVSS,high polyreactivity
2,QVQLVESGGGLVQAGGSLRLSCAATGIIFDSYTMGWYRQAPGKERELVAAISVSGGSTYYADSVKVRFTISRDNAKNTVYLQMNSLKPEDTAVYYCAARGYAFNYMWPFNYWGQGTQVTVSS,low polyreactivity
3,QVQLVESGGGLVQAGGSLRLTCAASGNIFYSYAMGWYRQAPGKERELVAAITIDGSTTYADSVKGRFTISRDNAKNTVYLQMNSLKPEDTAVYYCAKEGEAYPATYRYQFDYWGQGTQVTVSS,low polyreactivity
4,QVQLVESGGGLVQAGCSLRLSFAASGRTLVPYSMGWYRQAPGKERELVAAKSSGGSTNYADSVKGRFTISRDNAKNTVYLQMNSLKPEDTAVYSCAAYDSVQKYWILGFDYWGQGTQVTVSS,low polyreactivity
5,QVQLEESGGGLVQAGGSLRLSCAASGLIFRYYVMGWYRQAPGKERELVAGITSSGGSTYYADSVKGRFTISRDNAKNTVYLQMNSLKPEDTAVYYCNKGGISGRDYWGQGTQVTVSS,high polyreactivity
6,QVQLVESGGRLVQAGGTLRLSCAASGRIFGDYAMGWYRQAPGKERELVAVISVGGRTTYADSVKGRFTISRDNAKNTVYLQMNSLKPEDTAVYYCATRLSTRDGGYRGQGTQVTVSS,low polyreactivity
7,QVQLVESGGGLVQAGGSLRLSCAASGFTFRKNAMGWYRQAPGKERELVAAISSGTSTYYADSVKGRFTISRDNAKNTVYLQMNSLKPEDTAVYYCAAARYRTDDYWGLGTQVTVSS,high polyreactivity
8,QVQLVESGGGLVQAGGSLRLSCAASGIFVYYAMGWYRQAPGKERELVAAISSTGTSTYYADSVKGRFTISRDNAKNTVYLQMNSLKPEDTAVYYCAARGYAKRGYWGQGTQVTVSS,high polyreactivity
9,QVQLVESGGGLVQAGGSLRFSCAASGRTFFGYAMGWYRQAPGKERELVAAISRGGTTHYADSVKGRFTISRDNAKNTVYLQMNSLKPEDTAVYYCAADGYPYIWSGIEYDYWGQGTQVTVSS,high polyreactivity
10,QVQLVESGGGIVQAGGSLRLSCAASGSTLTIYAMGWYRQAPGKERELVAAISRSGGRTYYADSVKGRFTISRDNAKNTVYLQMNSLKPEDTAVYYCATQPVRDRPGGSRKKYYYWGLGTQVTVSS,high polyreactivity
11,QVQLVESGGGLVQAGGRLRLSCAASGSTFEEYAMGWYRQAPGKERELVAGITWGGGSTYYADSVKGRFTISRDNAKNTVYLQMNSQKPEDTAVYYCAAEPGWYADTPASDSKYDYWGQGTQGTVSS,low polyreactivity
12,QVQLVESGGGLVQAGGSLRLSCAASGYIFTFYTMGWYRQEPGKERDLVAAISQTGGRTYYADSVKGRFTISRDNAKNTVYLEMNSLKPEDTAVYYCAARSKRLAHDYWGQGTQVTVSS,high polyreactivity
13,QVQLVESGGGLVQAGGSLRLSCAASGRIFSTYAMGWYRQAPGKERELVAAITNSAGSTYYADSVKGRFTISRDNAKNTVYLHMNSLKPEDTALYYCATGWSRISYGFDYWGQGTLVTVSS,low polyreactivity
14,QVQLVESGGGLVQAGGSLRLSCADSGFTFSWYTMGWYRQAPGKERELVASITVSGGSTYYADSVKGRFTISRDNAKNTVYLQMNSLKPEDTAVYYCNAQDPFTYYSSSPTYDYWGQGTQVTVSS,low polyreactivity
15,QVQLVESGGGLVQAGGSLRLSCAASGSIFKIYAMGWYRQAPGKERELVAAITINGGSTYYADSVKGRFTISRDNAKNTVYLQMNSLKPEDTAVYYCAASADWWYEYWGQGTQVNVSS,low polyreactivity
16,QVQLVESGGGLVLAGASLRLSCAPSGFIFVRYAMGWYRAAPGKERELVAAISSGGSTKYADSVKGRFTISRDNAKNTVYLQMNSLKPEDTAVYYCAADATPGRGVDYWGQGTQVTVSS,high polyreactivity
17,QDQLVDSGGGLVQAGGSLSLSCAASGISFYGNAMAWYRPAPGKERELVAAITSGGSTNYADSVKGRFTISRDNAKNTVYLQLYSLKPEDTAVYYCAVSYVSTLRRSRYDYWGQGTQVTVSS,low polyreactivity
18,QGQLVESGGGLVQAGGSLPLSCAASGFTFRWNTMGWSRQGPGKEREFVASISQRGGRTFYADSVKGRFTISRDNAKNTVYIQMNCQKPEDTAVYFCNARGHRAVPGDELGYWGQGTQVTVSS,low polyreactivity
19,QVQLVESGGGLVQAGGSLRLSCAASGSIFPWYAMGWYRQAPGKEKELVAAIRWRDGRTYYADSVKGRFTISRDNAKNTVYLQMNSLKPEDTAVYYCAAVSTDKYVYGVDVYLYDYWGQGTQVTVSS,low polyreactivity
20,QVQLVESGGGLVQAGGSLRLSCAASGIIFKLNAMGWYRQAPGKEREFVAAITRRGGITFYADSVKGRFTISRDNAKNTVYLQMNSLKPEDTAVYYCAASPGRRRRPYASLIRYDYWGQGTQVTVSS,high polyreactivity
21,QVQLVESGGGLVQAGGSLRLSCAASGSIFYWYAMGWYRQAPGKERELVATNRYRGGNTYYADSVKGRFTISRDNAMNTVYLQMNSLKAEDTAVYYADFVKFCKYYQRYDYWGQGTQVTVSS,high polyreactivity
22,QVQLVESGGGLVQAGGSLRLSCAASGFTFGINAMGWYRQAPGKERELVAAINQSGDRTYYADSVKGRFTISRDNAKNTVYLQMNSLKPEDTAVYYCAALSTYRTWYGYWGQGTQVTVSS,high polyreactivity
23,QVQLVESGGGLVQAGGSLRLSCAASGSTFRYYAMGWYRQAPGKERELVAVISTSGNTYYADSVKGRFSISRDNAKITVYVQMNSLQPEETAVYYCAARGVGGQISQEYDYWGQGTQVTVSS,low polyreactivity
24,QVQLVESGGGLVQAGGSLRLSCAASGSIFRVYVMGWYRQAPGKERELVARIRYRSGRTNYADSVKGRFTISRDNAKNTVYLQMNSLKPEDTAVYYCSADVYWPTAGDYTQKRDYWGLGTQVTVSS,high polyreactivity
25,QVQLVESGGGLVQAGGSLRLSCAASGRTFYYYTMGWYRQAPGKERELVAAITWNGGSTYYADSVKGRFTISRDNAKNTVYLQMNSLKPEDTGVYYCIARWTWRYDYWGQGTQVTLSS,high polyreactivity
26,QVQLVDSGGGLVQAGGSLRLSCAASGLIFDVYAMGWYRQAPGKERELVAVISSDGGTYYADSVKGLFTISRDNAKNTVYLQMISLKPEYTAVYYCAARRWREGARYSYWGQGTQVTVSS,high polyreactivity
27,QVQLVESGGGLVQAGGSLRFSCAASGSTFYLYDMGWYRQAPGQERELVAVISWSGGSTSYADSVKGRFTISRDNAKNTIYLQMYSLKPEDTAVYYCTTDFYHWGQGTQVTVSS,low polyreactivity
28,QVQLVESGGGLVQAGGSLRLSCAASGSIFQPYAMGWYRQAPGKERELVATISSSGSTYYADSVKGRFTISRDNAKNTVYLQMTSLKPEDTAVYYCAAVYSDGPYNGYWLEYEYWGQGTQVTVSS,low polyreactivity
29,QVQLVESGGGLVQAGGSLRLSCAASGRTFSNYMGWYRQAPGKERELVAAISWRGGTTYYADSVKGRFTISRDNAKNTVYLQMNSLKPEDTAVYYCNADVVRYRHWHRGDYWGQGTQVTVSS,low polyreactivity
30,QVQLVESGGCLVQAGGSLRLSCAASGRIFRRYAMGWYRQAPGKERELVASITCGGSSTSYADSVKGRFTISRDNAKNTVYLQMNSLKPEDTAVYYCAKGGVFGTYLNEYDYCGQGTQVTVSS,low polyreactivity

# From the nanobody polyreactivity screen of Harvey et al. (2022)
